Source: US20240317852A1 (Molecular Partners, published 2024)
Blank lines part the entries; values can stand above or below the binder they belong to.

Legend:
[1] = target: T1, biotinylated human CD33 full-length extracellular domain (residues 18-259) with C-terminal Fc tag and Avi tag (human, UniProt P20138 18-259, biotinylated with BirA-GST (Avi tag)); assay: SPR (ProteOn), bio.hCD33 full length on NLC chip, DARPin at 100 nM, 1:1 Langmuir fit
T1 construct: Bought from Evitria; also called bio.hCD33; bio.hCD33 full-length target; not shown: C-terminal Fc tag and Avi tag
T1 sequence (P20138 18-259 R69G limits assumed): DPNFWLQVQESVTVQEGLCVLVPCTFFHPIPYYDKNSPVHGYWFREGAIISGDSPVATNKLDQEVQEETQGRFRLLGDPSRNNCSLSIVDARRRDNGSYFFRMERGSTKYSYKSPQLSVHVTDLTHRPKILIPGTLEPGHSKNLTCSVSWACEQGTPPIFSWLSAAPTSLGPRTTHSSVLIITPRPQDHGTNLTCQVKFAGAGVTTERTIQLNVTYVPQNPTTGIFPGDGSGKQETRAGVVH
Protocol: Moreover, the binding affinities of two additional purified ankyrin repeat proteins on recombinant human CD33 target were measured and analyzed with a similar procedure as described above for DARPin proteins #1, #3, #6, #7-#9 and #14-#16. Briefly, bio.hCD33 was coaled on NLC chip (BioRad) to a level of 1180 RU. DARPin® protein #29 and DARPin® protein #30 were applied as analyte at a single concentration of 100 nM with a 120 s association and 1200 s dissociation phase at a constant flow of 100 ul/min. The target was regenerated with 4M MgCl2. The signals were double referenced against the running buffer (PBST-PBS pH 7.4 containing 0.005% Tween 200) treated control lane of L1 and A6. The 1:1 Langmuir model was used for the fitting.

[2] = target: T2, human CD33 expressed on Molm-13 tumor cells (human, UniProt P20138 18-364); assay: flow cytometry on CD33-expressing Molm-13 N1 cells, anti-DARPin antibody detection
T2 construct: whole, on cells; also called CD33 expressed on the surface of cells; CD33-expressing tumor cells (Molm-13 N1)
T2 sequence (P20138 18-364): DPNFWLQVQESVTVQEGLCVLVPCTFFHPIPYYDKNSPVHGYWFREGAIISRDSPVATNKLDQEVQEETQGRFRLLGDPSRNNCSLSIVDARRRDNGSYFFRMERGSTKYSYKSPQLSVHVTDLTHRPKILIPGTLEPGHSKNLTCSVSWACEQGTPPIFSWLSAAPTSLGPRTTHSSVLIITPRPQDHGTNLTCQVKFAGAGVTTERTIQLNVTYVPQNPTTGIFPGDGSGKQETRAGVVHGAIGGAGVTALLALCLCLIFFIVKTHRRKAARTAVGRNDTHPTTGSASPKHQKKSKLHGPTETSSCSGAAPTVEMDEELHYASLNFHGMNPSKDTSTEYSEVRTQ
Protocol: Binding of binding proteins of the invention to CD33 expressed on the surface of cells was analyzed by fluorescence activated cell sorting (FACS) flow cytometry. For this purpose. CD33-expressing tumor cells (Molm-13 N1) were seeded at 100,000 cells per well in a 96 well plate. DARPin® protein #2, DARPin protein #29, and DARPin® protein #30, in monospecific format, were titrated down In 1:5 dilution ratio starting at 2000 nM. Tumor cells were resuspended with diluted DARPin proteins and incubated for 60 minutes at 4° C. The assay was performed in PBS Including 2% fetal bovine serum without human serum albumin (HSA). After washing twice with Phosphate Buffer saline (PBS), DARPin® protein specific tumor call binding was detected by adding unlabeled primary […] (anti-rabbit 1-1-1 antibody, CePower) at 2 μg/ml. An incubation step of at least 30 minutes at 4° C. followed. Afterwards, cells were washed with PBS and a secondary goat anti-rabbit antibody labelled with Alexa Fluor 488 antibody (ThermoFisher) at 2 ug/ml was added. The same incubation conditions applied. Finally, the cells were washed twice and resuspended in Cytofix fixation buffer (BD Biosciences) for 15 min at room temperature (RT).

[3] = target: T2, human CD33 expressed on Molm-13 tumor …; assay: flow cytometry on MOLM13 cells
[4] = target: T1, biotinylated human CD33 full-length …; assay: HTRF
[5] = target: T1, biotinylated human CD33 full-length …; assay: SPR (ProteOn XPR36), biotinylated full-length CD33 ECD on NLC chip, DARPin at 50 nM, single trace
Protocol: Briefly, SPR measurements were performed using a ProteOn XPR36 instrument (BioRad). The running buffer was PBS pH 7.4 containing 0.005% Tween 20® (PBST). The bio.hCD33 full-length target (SEQ ID NO: 60) was immobilized on NLC chips (BioRad) to a level of 540 RU and the spliced variant (SEQ ID NO: 61) to a level of 560RU. The interaction of the 96 well purified CD33-specific binding proteins in TCE format to the full-length and the spliced variant of CD33 ECD were measured by injecting the binding protein at 50 nM with an association of 120s and dissociation of 1200s using a constant flow of […]. The target was regenerated between the individual measurements using 2M MgCl₂. The signals were double referenced against the running buffer (PBST) treated control lane.
Dissociation constants (KD) were calculated from the estimated on- and off-rates using standard procedures known to the person skilled in the art. […] The values in Table 2a are averages of multiple replicates.

Kd [1]: 0.62 nM
EC50 [2]: 0.32 nM
B1: DARPin® protein #29 in monospecific (single domain) format (designed binder)
chain: MRGSHHHHHHGSDLGVKLLLAAERGQLDEVRILLKAGADVNAKDIAEGYTPLHIAAYQGHLEIVEVLLKAGADVNAKDRYGKTPLHLAAIGGHLEIVEVLLKAGADVNAQDNKGSTPADLAADYGHQDIAEVLQKAA
notes: the same molecule is used here

Kd [1]: 0.88 nM
EC50 [2]: 1.9 nM
B2: DARPin® protein #30 in monospecific (single domain) format (designed binder)
chain: MRGSHHHHHHGSDLGKKLLLAAERGQLDEVRILLKAGADVNAKDRAEGYTPLHIAAYQGHLEIVEVLLKAGADVNAKDRYGKTPLHLAAISGHLEIVEVLLKAGADVNAQDNKGSTPADLAADYGHQDIAEVLQKAA
notes: as for B1

EC50 [2]: 1.2 nM
B3: DARPin® protein #2 in monospecific (single domain) format (designed binder)
chain: MRGSHHHHHHGSDLGVKLLLAASRGQLDEVRILLKAGADVNAKDIDEGYTPLHIAAYYGHLEIVEVLLKAGADVNAKDRYGKTPLHLAAISGHLEIVEVLLKAGADVNAQDDKGDTPADLAADYGHQDIAEVLQKAA

binding result [3]: binds
binding result [4]: binds
B4: DARPin® protein #11 (engineered variant of DARPin® protein #9) (designed binder)
chain: DLGYKLLWAASAGQDDEVRELLKAGADVNAKDKDGATPLHFAAAKGHLEIVEVLLKAGADVNAKDNRGATPLHYVAAASGHLEIVEVLLKAGADVNAQDEWGNTPADLAAIYGHEDIAEVLQKAA

binding result [3]: binds
binding result [4]: binds
B5: DARPin® protein #12 (engineered variant of DARPin® protein #9) (designed binder)
chain: DLGVKLLWAASAGQDDEVRELLKAGADVNAKDKDGATPLHFAAAKGHLEIVEVLLKAGADVNAKDNRGATPLHYVAAASGHLEIVEVLLKAGADVNAQDEWGNTPADLAAIYGHGDIAEVLQKAA

B6: DARPin® protein #15 in TCE format (formatted with a CD3-specific ankyrin repeat domain) (designed binder)
chain: MRGSHHHHHHGSDLGKKLLQAARAGQLDEVRELLKAGADVNAKDLIGWTPLHLAAHYGHLEIVEVLLKAGADVNAKDAQGWTPLHIAAWEGHLEIVEVLLKAGADVNAKDWTGETPLHLAAFEGHLEIVEVLLKAGADVNAQDKSGKTPADLAARAGHQDIAEVLQKAA
notes: Crude extract HTRF construct also carried a C-terminal Flag tag; not shown: which one,
Kd [5]: 17 nM

B7: DARPin® protein #5 in TCE format (formatted with a CD3-specific ankyrin repeat domain) (designed binder)
chain: MRGSHHHHHHGSDLSKKLLQAARAGQLDEVRELLKAGADVNAKDQIGQTPLHLAAQSGHLEIVEVLLKAGADVNAKDTEGWTPLHVAAWEGHLEIVEVLLKAGADVNAKDWTGETPLHLAAYQGHLEIVEVLLKAGADVNAQDKSGKTPADLAARAGHQDIAEVLQKAA
notes: as for B6
Kd [5]: 12 nM

B8: DARPin® protein #1 in TCE format (formatted with a CD3-specific ankyrin repeat domain) (designed binder)
chain: MRGSHHHHHHGSDLGWKLLLAASRGQDDEVRILLAAGADVNAKDIDEGYTPLHIAAYYGHLEIVEVLLKAGADVNAKDRYGKTPLHLAAISGHEDIAEVLLKAGADVNAQDDKGDTPADLAADYGHEDIAEVLQKAA
notes: not shown: which one,
Kd [5]: 4.8 nM

B9: DARPin® protein #3 in TCE format (formatted with a CD3-specific ankyrin repeat domain) (designed binder)
chain: MRGSHHHHHHGSDLGVKLLRAAFHGQDDEVRILLAAGADVNAKDTDGETPLHYAAQFGHLEIVEVLLKAGADVNAKDAYGATPLHWAAWHGHLEIVEVLLKAGADVNAQDVSGATPADLAAKVGHEDIAEVLQKAA
notes: as for B6
Kd [5]: 7.4 nM

binding result [3]: binds
binding result [4]: binds
B10: DARPin® protein #10 (engineered variant of DARPin® protein #9) (designed binder)
chain: DLGYKLLWAASAGQDDEVRELLKAGADVNAKDKDGATPLHFAAAKGHLEIVEVLLKAGADVNAKDNRGATPLHYAAASGHLEIVEVLLKAGADVNAQDEWGNTPADLAAIYGHGDIAEVLQKAA

binding result [3]: binds
binding result [4]: binds
B11: DARPin® protein #13 (engineered variant of DARPin® protein #9) (designed binder)
chain: DLGYKLLWAASAGQDDEVRELLKAGADVNAKDKDGATPLHFAAAKGHLEIVEVLLKAGADVNAKDNRGATPLHYAAASGHLEIVEVLLKAGADVNAQDEWGNTPADLAAIYGHEDIAEVLQKAA

B12: DARPin® protein #7 in TCE format (formatted with a CD3-specific ankyrin repeat domain) (designed binder)
chain: MRGSHHHHHHGSDLGLKLLRAAYDGQDDEVRILLAAGADVNAKDWQGFTPLHYAAVLGHLEIVEVLLKAGADVNAKDQEGATPLHLAALHGHLEIVEVLLKAGADVNAQDESGWTPADLAAKWGHEDIAEVLQKAA
notes: as for B6
Kd [5]: 0.47 nM

B13: DARPin® protein #14 in TCE format (formatted with a CD3-specific ankyrin repeat domain) (designed binder)
chain: MRGSHHHHHHGSDLGWKLLNAAIAGQDDEVRILLAAGADVNAKDTEYGWTPLHIAASDGHLEIVEVLLKAGADVNAKDYAGSTPLHAAAFVGHLEIVEVLLKAGADVNAQDHQGQTPADLAAQQGHVDIAEVLQKAA
notes: as for B6
Kd [5]: 0.64 nM

B14: DARPin® protein #8 in TCE format (formatted with a CD3-specific ankyrin repeat domain) (designed binder)
chain: MRGSHHHHHHGSDLGWKLLSAATLGQDDEVRILLAAGADVNAKDEWGKTPLHWAASTGHLEIVEVLLKAGADVNAKDLWGHTPLHEAAAKGHLEIVEVLLKAGADGNAQDNIGDTPADLAAYQGHEDIAEVLQKAA
notes: as for B6
Kd [5]: 2.3 nM

B15: DARPin® protein #9 in TCE format (formatted with a CD3-specific ankyrin repeat domain) (designed binder)
chain: MRGSHHHHHHGSDLGYKLLWAASAGQDDEVRILLAAGADVNAKDKDGATPLHFAAAKGHLEIVEVLLKAGADVNAKDNRGATPLHYVAAASGHLEIVEVLLKAGADVNAQDEWGNTPADLAAIYGHGDIAEVLQKAA
notes: as for B6
Kd [5]: 0.76 nM
